Measurements as given in patent US9046519 (RSR, dated 2015).
Residue numbers refer to the chain shown, from its start. Read-outs that look alike come from different tables or passages of the source.

B1: TSHR Asp232 to Ala, Arg255 to Ala and Trp258 to Ala (receptor)
chain: GMGCSSPPCECHQEEDFRVTCKDIQRIPSLPPSTQTLKLIETHLRTIPSHAFSNLPNISRIYVSIDVTLQQLESHSFYNLSKVTHIEIRNTRNLTYIDPDALKELPLLKFLGIFNTGLKMFPDLTKVYSTDIFFILEITDNPYMTSIPVNAFQGLCNETLTLKLYNNGFTSVQGYAFNGTKLDAVYLNKNKYLTVIDKDAFGGVYSGPSLLAVSQTSVTALPSKGLEHLKELIAANTATLKKLPLSLSFLHLTRADLSYPSHCCAFKNQKKIRGILESLMCNESSMQSLRQRKSVNALNSPLHQEYEENLGDSIVGYKEKSKFQDTHNNAHYYVFFEEQEDEIIGFGQELKNPQEETLQAFDSHYDYTICGDSEDMVCTPKSDEFNPCEDIMGYKFLRIVVWFVSLLALLGNVFVLLILLTSHYKLNVPRFLMCNLAFADFCMGMYLLLIASVDLYTHSEYYNHAIDWQTGPGCNTAGFFTVFASELSVYTLTVITLERWYAITFAMRLDRKIRLRHACAIMVGGWVCCFLLALLPLVGISSYAKVSICLPMDTETPLALAYIVFVLTLNIVAFVIVCCCYVKIYITVRNPQYNPGDKDTKIAKRMAVLIFTDFICMAPISFYALSAILNKPLITVSNSKILLVLFYPLNSCANPFLYAIFTKAFQRDVFILLSKFGICKRQAQAYRGQRVPPKNSTDIQVQKVTHEMRQGLHNMEDVYELIENSHLTPKKQGQISEEYMQTVL
notes: whole, on cells; as m1
B2: TSHR Arg255 to Ala, Trp258 to Ala, Tyr185 to Ala and Lys183 to Ala (receptor)
chain: B1 chain with K163A, Y165A, A212D
notes: whole, on cells; as m1
B3: TSHR Trp258 to Ala, Lys183 to Ala and Tyr185 to Ala (receptor)
chain: B1 chain with K163A, Y165A, A212D, A235R
notes: whole, on cells; as m1
B4: TSHR Arg255 to Ala, Trp258 to Ala and Tyr185 to Ala (receptor)
chain: B1 chain with Y165A, A212D
notes: whole, on cells; as m1
B5: TSHR Arg255 to Ala, Lys183 to Ala and Tyr185 to Ala (receptor)
chain: B1 chain with K163A, Y165A, A212D, A238W
notes: whole, on cells; as m1
B6: 9D33 MAb (antibody, V domains shown)
VH: DVQIQQPGTELVKPGASVRLSCKASGYTFTTYWMHWVKQRPGQGLEWIGEIDPSDSYTNYNQKFKGKATLTVDKSSSTAYMHLSSLTSEDSAVYYCSRNYGSGYYFDYWGQGTTLTVSS
VL: GVEMTQSPAIMSASPGEKVTMTCSASSSVSYMHWYQQKSGTSPKRWIYDTSKLASGVPARFSGSGSGTSYSLTISSMETEDAATYYCQQWSSNPWTFGGGTKLEIK

Tests used:
Assay in all cases: Scatchard, 125I-ligand, solubilised TSHR on tubes
[1] = biological target: porcine TSH (RSR Ltd, 70 units per mg) (porcine, UniProt P01219 25-120; P01224 21-132)
[2] = biological target: T1, TSHR Glu178 to Ala and Asp203 to Ala (human, UniProt P16473 21-764)
T1 construct: whole, on cells; as m1

[3] = biological target: T2, TSHR Tyr185 to Ala and Lys183 to Ala (human, UniProt P16473 21-764)
T2 construct: whole, on cells; as m1

[4] = biological target: B5
[5] = biological target: T3, human thyrotropin receptor (TSHR), wild type, full length (human, UniProt P16473 21-764)
T3 construct: whole, on cells; Full length cDNA in pcDNA5.1/FRT, stably expressed in Flp-In-CHO cells; Cyclic AMP assays: on the cells; also called TSH receptor; Wild type TSHR

[6] = biological target: T4, TSHR Arg255 to Ala and Tyr185 to Ala (human, UniProt P16473 21-764)
T4 construct: whole, on cells; as m1

[7] = biological target: T5, TSHR Trp258 to Ala and Tyr185 to Ala (human, UniProt P16473 21-764)
T5 construct: whole, on cells; as m1

[8] = biological target: T6, TSHR Glu157 to Ala and Asp203 to Ala (human, UniProt P16473 21-764)
T6 construct: whole, on cells; as m1

[9] = biological target: B4
TSHR Trp258 to Ala = biological target: T7, TSHR Trp258 to Ala (human, UniProt P16473 21-764)
T7 construct: whole, on cells; as m1; also called Trp258 mutated to Ala
Method: (§1) Firstly, dilution profiles of each TSHR preparation were set up. In these experiments, plastic tubes (Maxisorp Star; NUNC) were coated overnight at 4° C. with 200 µL of a mouse monoclonal antibody to the TSHR C-terminus at 10 µg/mL in coating buffer (0.1 mmol/L Na_2CO$_3$ pH 9.2). After washing and post-coating (10 mg/mL of BSA in water) the tubes were washed with assay buffer (10 mmol/L Tris-HCl pH 7.8, 50 mmol/L NaCl and 1 mg/mL BSA) containing 0.1% Triton X-100. In the next step, 200 µL of solubilized wild type or mutated TSHR preparations were added to the tubes and incubated overnight at 4 C. […] After aspiration of the solutions, the tubes were washed and counted in a gamma counter.

TSHR Arg255 to Ala = biological target: T8, TSHR Arg255 to Ala (human, UniProt P16473 21-764)
T8 construct: whole, on cells; as m1; also called Arg255 mutated to Ala
Method: as §1

TSHR Lys209 to Ala = biological target: T9, TSHR Lys209 to Ala (human, UniProt P16473 21-764)
T9 construct: whole, on cells; as m1
Method: as §1

[10] = biological target: T10, TSHR Arg255 to Ala and Trp258 to Ala (human, UniProt P16473 21-764)
T10 construct: whole, on cells; as m1
Method: as §1

TSHR Gln235 to Ala = biological target: T11, TSHR Gln235 to Ala (human, UniProt P16473 21-764)
T11 construct: whole, on cells; as m1
Method: as §1

TSHR Ser281 to Ala = biological target: T12, TSHR Ser281 to Ala (human, UniProt P16473 21-764)
T12 construct: whole, on cells; as m1; also called Ser281 mutated to Ala
Method: as §1

TSHR Asp160 to Ala = biological target: T13, TSHR Asp160 to Ala (human, UniProt P16473 21-764)
T13 construct: whole, on cells; as m1
Method: as §1

TSHR Phe130 to Ala = biological target: T14, TSHR Phe130 to Ala (human, UniProt P16473 21-764)
T14 construct: whole, on cells; as m1
Method: as §1

TSHR Glu107 to Ala = biological target: T15, TSHR Glu107 to Ala (human, UniProt P16473 21-764)
T15 construct: whole, on cells; as m1
Method: as §1

TSHR Arg255 to Asp = biological target: T16, TSHR Arg255 to Asp (human, UniProt P16473 21-764)
T16 construct: whole, on cells; as m1; also called TSHR with Arg255 mutated to Asp; Arg255 Asp mutation
Method: as §1

[11] = biological target: T3, human thyrotropin receptor (TSHR), wild …; remark: listed apart in the source
Method: as §1

TSHR Glu251 to Ala = biological target: T17, TSHR Glu251 to Ala (human, UniProt P16473 21-764)
T17 construct: whole, on cells; as m1
Method: as §1

TSHR Arg274 to Ala = biological target: T18, TSHR Arg274 to Ala (human, UniProt P16473 21-764)
T18 construct: whole, on cells; as m1
Method: as §1

TSHR Thr257 to Ala = biological target: T19, TSHR Thr257 to Ala (human, UniProt P16473 21-764)
T19 construct: whole, on cells; as m1
Method: as §1

TSHR Asp276 to Ala = biological target: T20, TSHR Asp276 to Ala (human, UniProt P16473 21-764)
T20 construct: whole, on cells; as m1; also called Asp276 mutated to Ala
Method: as §1

TSHR Phe134 to Ala = biological target: T21, TSHR Phe134 to Ala (human, UniProt P16473 21-764)
T21 construct: whole, on cells; as m1
Method: as §1

TSHR Glu61 to Ala = biological target: T22, TSHR Glu61 to Ala (human, UniProt P16473 21-764)
T22 construct: whole, on cells; as m1; also called Glu61 mutated to Ala
Method: as §1

TSHR Asp43 to Ala = biological target: T23, TSHR Asp43 to Ala (human, UniProt P16473 21-764)
T23 construct: whole, on cells; as m1; also called Asp43 mutated to Ala
Method: as §1

TSHR Lys250 to Ala = biological target: T24, TSHR Lys250 to Ala (human, UniProt P16473 21-764)
T24 construct: whole, on cells; as m1
Method: as §1

TSHR Glu157 to Ala = biological target: T25, TSHR Glu157 to Ala (human, UniProt P16473 21-764)
T25 construct: whole, on cells; as m1; also called Glu157 mutated to Ala
Method: as §1

TSHR Glu178 to Ala = biological target: T26, TSHR Glu178 to Ala (human, UniProt P16473 21-764)
T26 construct: whole, on cells; as m1; also called Glu178 mutated to Ala
Method: as §1

TSHR Tyr279 to Ala = biological target: T27, TSHR Tyr279 to Ala (human, UniProt P16473 21-764)
T27 construct: whole, on cells; as m1
Method: as §1

TSHR Asp203 to Ala = biological target: T28, TSHR Asp203 to Ala (human, UniProt P16473 21-764)
T28 construct: whole, on cells; as m1; also called Asp203 mutated to Ala
Method: as §1

TSHR Tyr185 to Ala = biological target: T29, TSHR Tyr185 to Ala (human, UniProt P16473 21-764)
T29 construct: whole, on cells; as m1
Method: as §1

Binder: B1
binding result [1]: no binding

Binder: B2
binding result [1]: no binding

Binder: B3
binding result [1]: no binding

Binder: B4
binding result [1]: no binding

Binder: B5
binding result [1]: no binding

Binder: B6
Ka [2]: 8e+09 M⁻¹
Ka [3]: 6e+09 M⁻¹
Ka [4]: 3e+09 M⁻¹
Ka [5]: 1.8e+10 M⁻¹
Ka [6]: 9e+09 M⁻¹
Ka [7]: 9e+09 M⁻¹
Ka [8]: 6e+09 M⁻¹
Ka [9]: 8e+09 M⁻¹
Ka (TSHR Trp258 to Ala): 1.2e+10 M⁻¹
Ka (TSHR Arg255 to Ala): 8e+09 M⁻¹
Ka (TSHR Lys209 to Ala): 8e+09 M⁻¹
Ka [10]: 1.1e+10 M⁻¹
Ka (TSHR Gln235 to Ala): 1.1e+10 M⁻¹
Ka (TSHR Ser281 to Ala): 9e+09 M⁻¹
Ka (TSHR Asp160 to Ala): 1e+10 M⁻¹
Ka (TSHR Phe130 to Ala): 9e+09 M⁻¹
Ka (TSHR Glu107 to Ala): 6e+09 M⁻¹
Ka (TSHR Arg255 to Asp): 1.3e+10 M⁻¹
Ka [11]: 1.8e+10 M⁻¹
Ka (TSHR Glu251 to Ala): 8e+09 M⁻¹
Ka (TSHR Arg274 to Ala): 5e+09 M⁻¹
Ka (TSHR Thr257 to Ala): 7e+09 M⁻¹
Ka (TSHR Asp276 to Ala): 1.3e+10 M⁻¹
Ka (TSHR Phe134 to Ala): 5e+09 M⁻¹
Ka (TSHR Glu61 to Ala): 9e+09 M⁻¹
Ka (TSHR Asp43 to Ala): 1.4e+10 M⁻¹
Ka (TSHR Lys250 to Ala): 6e+09 M⁻¹
Ka (TSHR Glu157 to Ala): 1.3e+10 M⁻¹
Ka (TSHR Glu178 to Ala): 1.3e+10 M⁻¹
Ka (TSHR Tyr279 to Ala): 6e+09 M⁻¹
Ka (TSHR Asp203 to Ala): 1.4e+10 M⁻¹
Ka (TSHR Tyr185 to Ala): 9e+09 M⁻¹
